In patent publication US20190309059A1 (SHANGHAI PHARMAEXPLORER, published 2019):
Blank lines part the entries; values can stand above or below the binder they belong to.

Tests used:
[1] = molecular target: his-labeled human IL-13 (immunogen A) (human) (UniProt P35225); assay: cell-based or functional assay
[2] = molecular target: cynomolgus IL-13 (purchased from sino biological) (cynomolgus) (UniProt Q0PW92); assay: ELISA, cynomolgus IL-13; antibody at 0.53 nM
[3] = molecular target: cynomolgus IL-13 (purchased from sino biological) (cynomolgus) (UniProt Q0PW92); assay: ELISA, cynomolgus IL-13; antibody at 2.67 nM
[4] = molecular target: cynomolgus IL-13 (purchased from sino biological) (cynomolgus) (UniProt Q0PW92); assay: ELISA, cynomolgus IL-13; antibody at 0.004 nM
[5] = molecular target: cynomolgus IL-13 (purchased from sino biological) (cynomolgus) (UniProt Q0PW92); assay: ELISA, cynomolgus IL-13; antibody at 0.021 nM
[6] = molecular target: his-labeled human IL-13 (immunogen A) (human) (UniProt P35225); assay: ELISA, biotin-immunogen A; antibody at 0.11 nM
[7] = molecular target: his-labeled human IL-13 (immunogen A) (human) (UniProt P35225); assay: ELISA, biotin-immunogen A; antibody at 0.53 nM
[8] = molecular target: his-labeled human IL-13 (immunogen A) (human) (UniProt P35225); assay: ELISA, biotin-immunogen A; antibody at 13.33 nM
[9] = molecular target: his-labeled human IL-13 (immunogen A) (human) (UniProt P35225); assay: FACS blocking, biotin-IL-13 on IL-13Ra2 HEK293 cells; antibody at 0.01 nM
[10] = molecular target: his-labeled human IL-13 (immunogen A) (human) (UniProt P35225); assay: FACS blocking, biotin-IL-13 on IL-13Ra2 HEK293 cells; antibody at 0.05 nM
[11] = molecular target: his-labeled human IL-13 (immunogen A) (human) (UniProt P35225); assay: FACS blocking, biotin-IL-13 on IL-13Ra2 HEK293 cells; antibody at 0.27 nM
[12] = molecular target: his-labeled human IL-13 (immunogen A) (human) (UniProt P35225); assay: FACS blocking, biotin-IL-13 on IL-13Ra2 HEK293 cells; antibody at 1.33 nM
[13] = molecular target: his-labeled human IL-13 (immunogen A) (human) (UniProt P35225); assay: FACS blocking, biotin-IL-13 on IL-13Ra2 HEK293 cells; antibody at 6.67 nM
[14] = molecular target: his-labeled human IL-13 (immunogen A) (human) (UniProt P35225); assay: FACS blocking, biotin-IL-13 on IL-13Ra2 HEK293 cells; antibody at 0.002 nM
[15] = molecular target: his-labeled human IL-13 (immunogen A) (human) (UniProt P35225); assay: FACS blocking, biotin-IL-13 on IL-13Ra2 HEK293 cells; antibody at 33.33 nM
[16] = molecular target: his-labeled human IL-13 (immunogen A) (human) (UniProt P35225); assay: FACS blocking, biotin-IL-13 on IL-13Ra2 HEK293 cells; antibody at 166.67 nM
[17] = molecular target: his-labeled human IL-13 (immunogen A) (human) (UniProt P35225); assay: FACS blocking, biotin-IL-13 on IL-13Ra1/IL-4Ra HEK293 cells; antibody at 0.01 nM
[18] = molecular target: his-labeled human IL-13 (immunogen A) (human) (UniProt P35225); assay: FACS blocking, biotin-IL-13 on IL-13Ra1/IL-4Ra HEK293 cells; antibody at 0.05 nM
[19] = molecular target: his-labeled human IL-13 (immunogen A) (human) (UniProt P35225); assay: FACS blocking, biotin-IL-13 on IL-13Ra1/IL-4Ra HEK293 cells; antibody at 0.27 nM
[20] = molecular target: his-labeled human IL-13 (immunogen A) (human) (UniProt P35225); assay: FACS blocking, biotin-IL-13 on IL-13Ra1/IL-4Ra HEK293 cells; antibody at 1.33 nM
[21] = molecular target: his-labeled human IL-13 (immunogen A) (human) (UniProt P35225); assay: FACS blocking, biotin-IL-13 on IL-13Ra1/IL-4Ra HEK293 cells; antibody at 6.67 nM
[22] = molecular target: his-labeled human IL-13 (immunogen A) (human) (UniProt P35225); assay: FACS blocking, biotin-IL-13 on IL-13Ra1/IL-4Ra HEK293 cells; antibody at 0.002 nM
[23] = molecular target: his-labeled human IL-13 (immunogen A) (human) (UniProt P35225); assay: FACS blocking, biotin-IL-13 on IL-13Ra1/IL-4Ra HEK293 cells; antibody at 33.33 nM
[24] = molecular target: his-labeled human IL-13 (immunogen A) (human) (UniProt P35225); assay: FACS blocking, biotin-IL-13 on IL-13Ra1/IL-4Ra HEK293 cells; antibody at 166.67 nM
[25] = molecular target: his-labeled human IL-13 (immunogen A) (human) (UniProt P35225); assay: SPR (Biacore)

Sequence of cynomolgus IL-13 (purchased from sino biological) (cynomolgus) (Q0PW92 entry or part of it): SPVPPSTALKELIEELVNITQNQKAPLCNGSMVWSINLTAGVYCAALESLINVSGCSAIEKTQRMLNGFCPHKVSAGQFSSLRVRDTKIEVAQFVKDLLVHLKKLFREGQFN

B1: 28A2E11 (lead antibody, mouse hybridoma) (antibody, V domains shown)
VH: EVQLQQSGAELVKPGASVKLSCTASGFNIKDYYMHWVKQRTEQGLEWIGRIDPEDGETKYAPKFHDKATLTADTSSNTAYLQFSSLASEDTAVYYCTRYDYYGPFAYWGQGTLVTVSA
VL: QAVVTQESVLTTSPGETVTLTCRSSTGAVTTSNYANWVQEKPDHLFTGLIGGTNNRAPGVPARFSGSLIGDKAALTITGAQTEDEAIYFCALWYINHFIFGSGTKVTVL
notes: Mouse monoclonal antibody purified from hybridoma supernatant on Protein G
TARC (pg/mL), A549 cells + IL-13 5 ng/mL + TNFα; antibody at 0.001 nM [1]: 1850 pg/mL
TARC (pg/mL), A549 cells + IL-13 5 ng/mL + TNFα; antibody at 0.004 nM [1]: 1700 pg/mL
TARC (pg/mL), A549 cells + IL-13 5 ng/mL + TNFα; antibody at 0.021 nM [1]: 1590 pg/mL
TARC (pg/mL), A549 cells + IL-13 5 ng/mL + TNFα; antibody at 0.11 nM [1]: 1360 pg/mL
TARC (pg/mL), A549 cells + IL-13 5 ng/mL + TNFα; antibody at 0.5 nM [1]: 601 pg/mL
TARC (pg/mL), A549 cells + IL-13 5 ng/mL + TNFα; antibody at 2.7 nM [1]: 118 pg/mL
TARC (pg/mL), A549 cells + IL-13 5 ng/mL + TNFα; antibody at 13.3 nM [1]: 51 pg/mL
TARC (pg/mL), A549 cells + IL-13 5 ng/mL + TNFα; antibody at 66.7 nM [1]: 56 pg/mL
OD450 nm [2]: 0.83
OD450 nm [3]: 1.35
OD450 nm [4]: 0.08
OD450 nm [5]: 0.14
OD450 nm [6]: 0.74
OD450 nm [7]: 1.32
OD450 nm [8]: 1.74
mean fluorescence intensity [9]: 79.7
mean fluorescence intensity [10]: 76.9
mean fluorescence intensity [11]: 72.1
mean fluorescence intensity [12]: 60.1
mean fluorescence intensity [13]: 55.9
mean fluorescence intensity [14]: 76.5
mean fluorescence intensity [15]: 56.6
mean fluorescence intensity [16]: 53.3
mean fluorescence intensity [17]: 76.2
mean fluorescence intensity [18]: 71.5
mean fluorescence intensity [19]: 64.2
mean fluorescence intensity [20]: 39.6
mean fluorescence intensity [21]: 28.8
mean fluorescence intensity [22]: 74.7
mean fluorescence intensity [23]: 27.2
mean fluorescence intensity [24]: 24.6

Periostin (pg/mL), MRCS cells + IL-13 5 ng/mL; antibody at 0.0002 nM [1]: 7090 pg/mL
Periostin (pg/mL), MRCS cells + IL-13 5 ng/mL; antibody at 0.001 nM [1]: 6350 pg/mL
Periostin (pg/mL), MRCS cells + IL-13 5 ng/mL; antibody at 0.004 nM [1]: 5500 pg/mL
Periostin (pg/mL), MRCS cells + IL-13 5 ng/mL; antibody at 0.021 nM [1]: 4920 pg/mL
Periostin (pg/mL), MRCS cells + IL-13 5 ng/mL; antibody at 0.11 nM [1]: 4130 pg/mL
Periostin (pg/mL), MRCS cells + IL-13 5 ng/mL; antibody at 0.53 nM [1]: 1650 pg/mL
Periostin (pg/mL), MRCS cells + IL-13 5 ng/mL; antibody at 2.67 nM [1]: 1100 pg/mL
Periostin (pg/mL), MRCS cells + IL-13 5 ng/mL; antibody at 13.3 nM [1]: 1160 pg/mL
VCAM-1 fluorescence intensity, HUVEC + IL-13 0.5 ng/mL + TNFα; antibody at 0.0002 nM [1]: 379
VCAM-1 fluorescence intensity, HUVEC + IL-13 0.5 ng/mL + TNFα; antibody at 0.001 nM [1]: 346
VCAM-1 fluorescence intensity, HUVEC + IL-13 0.5 ng/mL + TNFα; antibody at 0.004 nM [1]: 395
VCAM-1 fluorescence intensity, HUVEC + IL-13 0.5 ng/mL + TNFα; antibody at 0.021 nM [1]: 404
VCAM-1 fluorescence intensity, HUVEC + IL-13 0.5 ng/mL + TNFα; antibody at 0.11 nM [1]: 278
VCAM-1 fluorescence intensity, HUVEC + IL-13 0.5 ng/mL + TNFα; antibody at 0.53 nM [1]: 227
VCAM-1 fluorescence intensity, HUVEC + IL-13 0.5 ng/mL + TNFα; antibody at 2.67 nM [1]: 224
VCAM-1 fluorescence intensity, HUVEC + IL-13 0.5 ng/mL + TNFα; antibody at 13.3 nM [1]: 207
OD450 nm [2]: 0.54
OD450 nm [3]: 1.34
OD450 nm [4]: 0.073
OD450 nm [5]: 0.085
OD450 nm [6]: 0.83
OD450 nm [7]: 1.93
Kd [25]: < 90 nM
OD450 nm [8]: 2.71
mean fluorescence intensity [9]: 99.1
mean fluorescence intensity [10]: 97.8
mean fluorescence intensity [11]: 92.9
mean fluorescence intensity [12]: 77.7
mean fluorescence intensity [13]: 65.7
mean fluorescence intensity [14]: 102
mean fluorescence intensity [15]: 64.8
mean fluorescence intensity [16]: 58
mean fluorescence intensity [17]: 102
mean fluorescence intensity [18]: 95.6
mean fluorescence intensity [19]: 93
mean fluorescence intensity [20]: 76.6
mean fluorescence intensity [21]: 65.2
mean fluorescence intensity [22]: 102
mean fluorescence intensity [23]: 61.9
mean fluorescence intensity [24]: 51.2
B2: c28A2E11 (mouse-human chimeric IL-13 antibody) (antibody, V domains shown)
VH: B1 VH
VL: B1 VL

B3: 29D9H8 (lead antibody, mouse hybridoma) (antibody, V domains shown)
VH: QVQLQQSGAELVRPGASVTLSCKASGYTFTDYEMHWVKQTPVHGLEWIGGIDPETGGTASNQKFKGKAILTADKSSSTAYMELRSLTSEDSAVYYCTSGDYFGGGPFAYWGQGTLVTVSA
VL: DIKMTQSPSSMYASLGERVTITCKASQDINSYLSWFQQKPGKSPKTLIYRANRLVDGVPSRFSGSGSGQDYSLTISSLDYEDMGIYYCLQYDEFPYTFGGGTKLEIK
notes: as for B1
TARC (pg/mL), A549 cells + IL-13 5 ng/mL + TNFα; antibody at 0.001 nM [1]: 1910 pg/mL
TARC (pg/mL), A549 cells + IL-13 5 ng/mL + TNFα; antibody at 0.004 nM [1]: 1720 pg/mL
TARC (pg/mL), A549 cells + IL-13 5 ng/mL + TNFα; antibody at 0.021 nM [1]: 1600 pg/mL
TARC (pg/mL), A549 cells + IL-13 5 ng/mL + TNFα; antibody at 0.11 nM [1]: 1300 pg/mL
TARC (pg/mL), A549 cells + IL-13 5 ng/mL + TNFα; antibody at 0.5 nM [1]: 653 pg/mL
TARC (pg/mL), A549 cells + IL-13 5 ng/mL + TNFα; antibody at 2.7 nM [1]: 146 pg/mL
TARC (pg/mL), A549 cells + IL-13 5 ng/mL + TNFα; antibody at 13.3 nM [1]: 53 pg/mL
TARC (pg/mL), A549 cells + IL-13 5 ng/mL + TNFα; antibody at 66.7 nM [1]: 42 pg/mL
OD450 nm [2]: 2.05
OD450 nm [3]: 2.36
OD450 nm [4]: 0.19
OD450 nm [5]: 0.56
OD450 nm [6]: 0.85
OD450 nm [7]: 1.4
OD450 nm [8]: 1.6
mean fluorescence intensity [9]: 74.6
mean fluorescence intensity [10]: 67.6
mean fluorescence intensity [11]: 45.4
mean fluorescence intensity [12]: 32.3
mean fluorescence intensity [13]: 23.6
mean fluorescence intensity [14]: 76.3
mean fluorescence intensity [15]: 21.5
mean fluorescence intensity [16]: 20.5
mean fluorescence intensity [17]: 74.2
mean fluorescence intensity [18]: 68.5
mean fluorescence intensity [19]: 45.3
mean fluorescence intensity [20]: 24
mean fluorescence intensity [21]: 16.6
mean fluorescence intensity [22]: 75.3
mean fluorescence intensity [23]: 15.9
mean fluorescence intensity [24]: 14.8
